31 sequences from the supplement of paper PMC9170038 can be followed below.

The subject of the data set is MS2 coat protein. The data set can be described thus: apparent KD of MS2 coat protein; designed switch direction (-1 OFF switch, 1 ON switch): -1; higher = weaker reporter binding. A digest of the protocol:
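SNAP-549-labelled MS2 coat protein was titrated, doubling from 0.7 or 1.5 nM to 3 µM, over designed RNA switches transcribed on Illumina chips by stalled E. coli RNA polymerase. Runs were done without input, with 200 uM small-molecule ligand, or with an oligonucleotide input. Apparent KD is the per-design median over clusters of curve-fitted normalised fluorescence.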

[1] abbreviates: input ligand: microRNA oligo, concentration not stated.
The mark [2] stands for this setting: Eterna round: R95, input ligand: microRNA oligo, concentration not stated.
Setting [3] is: Eterna round: R95, input ligand: FMN 200 uM.
Where [4] appears, read: Eterna round: R95, input ligand: none.

With “CAGUACUGAGGAUAUACAUGAGGAUCACCCAUGUGGAGAGGAAAAGGAAGAAAAGAAGGUAGAAGGCGGUGCUG [JR_Ex3_Sub042] (Eterna round: R97, puzzle: Exclusion 3)”, the “apparent KD of MS2 coat protein” value (input ligand: FMN 200 uM) was determined as 196 nM and the “apparent KD of MS2 coat protein” value (input ligand: none) came out at 40.8 nM.
For “CAGUACUGAGGAUAUACAUGAGGAUCACCCAUGUGUACCAGCUAGGAAACUAGCAAAAGUAGAAGGCAGUACUG [828 mod 2 m10] (Eterna round: R97, puzzle: Exclusion 3)” the same measures were 32.6 nM and 14.9 nM.
The matching figures for “CAGUACUGAGGAUAUACAUGAGGAUCACCCAUGUGUGUGAGAAAAUUAAUAAAAGAAUGUAGAAGGCGGUGCUG [JR_Ex3_Sub041] (Eterna round: R97, puzzle: Exclusion 3)”: 645 nM and 357 nM.
Consider “CAGUACUGAGGAUAUACAUGAGGAUCACCCAUGUGUUCCAGCUAGGAAACUAGCAAUAGUAGAAGGCAGUACUG [salish99_ex3_r3_090x] (Eterna round: R96, puzzle: Exclusion 3)”, for which the “apparent KD of MS2 coat protein” value is, setting by setting: (input ligand: FMN 200 uM) 417 nM; under setting [1], 19.1 nM; (input ligand: none) 23.2 nM.
“CAGUACUGAGGAUAUACAUGAGGAUCACCCAUGUGUUCCAGCUAGGAAACUAGCAAUAGUAGAAGGCAGUACUG [salish99_ex3_r3_090x] (puzzle: Exclusion 3)”: the “apparent KD of MS2 coat protein” value under setting [2] was found to be 21.3 nM.
As to “CAGUACUGAGGAUAUACAUGAGGAUCACCCAUGUGUUCCGGCUAGGAAACUAGCAAAAGUAGAAGGCAGUACUG [salish99_ex3_r3_079] (puzzle: Exclusion 3)”, the “apparent KD of MS2 coat protein” value under setting [3] is 368 nM, the “apparent KD of MS2 coat protein” value under setting [2] is 30.8 nM and the “apparent KD of MS2 coat protein” value under setting [4] worked out at 28.5 nM.
Take “CAGUACUGAGGAUAUACAUGAGGAUCACCCAUGUGUUCCGGCUAGGAAACUAGCAAAGGUAGAAGGCAGUACUG [Salish 065 m11] (Eterna round: R97, puzzle: Exclusion 3)”: the “apparent KD of MS2 coat protein” value is, setting by setting: (input ligand: FMN 200 uM) 823 nM; (input ligand: none) 43.7 nM.
The matching figures for “CAGUACUGAGGAUAUACAUGAGGAUCACCCAUGUUUUCCAGCUAGGAAACUAGCAAGUGUAGAAGGCAGUACUG [Salish 065 m6] (Eterna round: R97, puzzle: Exclusion 3)”: 342 nM and 25.6 nM.
Consider “CAUACUAAAGUCAGGAUAUGCGGUCGAAUACGGGCGUAGAAGGGACAUGAGGAUCACCCAUGUAGAUAGUAAAG [EX-4 Malc #19] (puzzle: Brourd's mod of Exclusion 4)”, for which the “apparent KD of MS2 coat protein” value under setting [3] came out at 15.3 nM, the “apparent KD of MS2 coat protein” value under setting [2] turned out to be 13.6 nM and the “apparent KD of MS2 coat protein” value under setting [4] worked out at 15.7 nM.
As for “CAUAUGGGAGGAUAUGCAUAGAUAAAGAAACAUGUUCAACCACAUGAGGAUCACCCAUGUAGAAGGCCCAUAUG [Mat - Same state - Mayanna Mod - D102] (Eterna round: R96, puzzle: Exclusion 2)”, the “apparent KD of MS2 coat protein” value by setting is: (input ligand: FMN 200 uM) 266 nM; under setting [1], 22.7 nM; (input ligand: none) 32.8 nM.
On to “CAUCCACAUGAGGAUCACCCAUGUCAGGAUAUCGCGCGCGCGUUUUCGGUCUUUCGCGCGAGAAGGGACGACUG (puzzle: Exclusion 1)”, for which the “apparent KD of MS2 coat protein” value under setting [2] came to 13.3 nM.
For the sequence “CAUGAUCUUCGGAAAAUGUACAUGAGGAUCACCCAUGUGACGAGUUACAUGAAAAACAAGCUUUUUGCUCGUCUUAU [Sensor v3 - Turn-off variant 1 - 10] (puzzle: Sensor v3, turn-off variant 1)”, the “apparent KD of MS2 coat protein” value runs as follows: under setting [3], 411 nM; under setting [2], 288 nM; under setting [4], 623 nM.
The matching figures for “CAUGAUCUUCGGAUCAUGUACAUGAGGAUCACCCAUGUUACGAGUUGAUCCUCAUACAAGCUUUUUGCUCGUCUUAU [Sensor v3 - Turn-off variant 1 - 26] (puzzle: Sensor v3, turn-off variant 1)”: 22.2 nM, 14.8 nM and 20.8 nM.
For “CAUGUGUUAGGAUAUGCACAGAUCUCCGAAAGGAGAUCUGUGCAGAAGGAACAUGAGGAUCACCCAUGUUGAUG [Mod of Brourd 16 - Jieux - Exclusion 4] (Eterna round: R97, puzzle: Exclusion 4)”, the “apparent KD of MS2 coat protein” value is, setting by setting: (input ligand: FMN 200 uM) 136 nM; (input ligand: none) 37.3 nM.
For “CAUUAUUAUCGAGGAUAUCCUAUUGUAAUACUGGGAGAAGGCGGACUCAACAUGAGGAUCACCCAUGUAAGACGGGUACUAGAU [Ex NG1 #22] (Eterna round: R96, puzzle: Exclusion NG 1)”, the “apparent KD of MS2 coat protein” value stood at 228 nM (input ligand: FMN 200 uM), 139 nM under setting [1] and 163 nM (input ligand: none).
Take “CAUUAUUAUCGAGGAUAUCCUAUUGUAAUUCUGGGAGAAGGCGGACUCAACAUGAGGAUCACCCAUGUAAGACGGGUACUAGAU [Ex NG1 #21] (Eterna round: R96, puzzle: Exclusion NG 1)”: the “apparent KD of MS2 coat protein” value runs as follows: (input ligand: FMN 200 uM) 69.5 nM; under setting [1], 61 nM; (input ligand: none) 92 nM.
For “CAUUCCUAGCGAGGAUAUCAGUAAAAGGGAAGCUGAGAAGGCGCAAACAUGAGGAUCACCCAUGUCACACGCGGGUAGUUUUCC [Uslazaxe] (Eterna round: R96, puzzle: Exclusion NG 1)” the same measures were 16.2 nM, 10.8 nM and 14.3 nM.
With “CAUUGUUACGGAGGAUAUCGUAUUGAGAUACUAUGAGAAGGCCGAAUAAACAUGAGGAUCACCCAUGUGAGACGGAUGCUUGUG [Ex NG1 #35] (Eterna round: R96, puzzle: Exclusion NG 1)”, the “apparent KD of MS2 coat protein” value by setting is: (input ligand: FMN 200 uM) 33.1 nM; under setting [1], 14.9 nM; (input ligand: none) 18.9 nM.
In the case of “CAUUUCAGUCGGAGAUCCAACAUGAGGAUCACCCAUGUCUCUAAAGCUUUUUGCUCGUCUUAUCCUCCUUUGUUCAC [JR_STOV1_Sub098] (Eterna round: R97, puzzle: Sensor, turn-off variant 1)”, the “apparent KD of MS2 coat protein” value is, setting by setting: (input ligand: FMN 200 uM) 458 nM; (input ligand: none) 299 nM.
The matching figures for “CCAACCAGAGGAUAUGCGCAUAGAUCAGACUUUGUUUCUUAACAUGAGGAUCACCCAUGUAGAAGGCUGUAACC [Ex2 #76] (Eterna round: R97, puzzle: Exclusion 2)”: 21.6 nM and 20 nM.
For “CCAAGAAUAGGAUAUACACCAUGUCAGCUUAUAUACAACGAACAUGAGGAUCACCCAUGUAGAAGGGUUCUCUC [Exclusion-2-#1] (Eterna round: R97, puzzle: Exclusion 2)” the same measures were 430 nM and 479 nM.
The matching figures for “CCAAGCUUAUUCAUUAACAACAUGAGGAUCACCCAUGUAUAGGCAAUUAUGUCUGGGCUCUUUAGUGCUCGUCUUAU [Sensor-V1 #24] (Eterna round: R97, puzzle: Sensor, turn-off variant 1)”: 18 nM and 19.8 nM.
As for “CCAAGCUUAUUCAUUAACCACAUGAGGAUCACCCAUGUAUAGGCAAUUAUGACUGGGCUCUGUGGUGCUCGUCUUCU [mod-malcom] (Eterna round: R97, puzzle: Sensor, turn-off variant 1)”, the “apparent KD of MS2 coat protein” value runs as follows: (input ligand: FMN 200 uM) 59.7 nM; (input ligand: none) 60.3 nM.
As to “CCAGCGUAUGUGAGGAUAUGCUGGUCCUUGGAUCAGCAGAAGGCACAUGAGGAUCACCCAUGUGGAAACGUUGG [JL bmx4 3.41] (puzzle: Brourd's mod of Exclusion 4)”, under setting [2], the “apparent KD of MS2 coat protein” value was 16.4 nM.
As to “CCAGCGUAUGUGAGGAUAUGCUGGUCCUUGGAUCAGCAGAAGGCACAUGAGGAUCACCCAUGUGGAAACGUUGG [Mod of JL 1 - Jieux - Brourd's mod of Exclusion 4] (Eterna round: R97, puzzle: Brourd's mod of Exclusion 4)”, the “apparent KD of MS2 coat protein” value is 95.4 nM (input ligand: FMN 200 uM) and 24.3 nM (input ligand: none).
“CCAUAUAACUGAGGAUAUAAUCACCACUAACAUUUAGAAGGCAGACAUGAGGAUCACCCAUGUGAUUUCUCAAUAUUAUACAUC [Prohibition 77 - Jieux - Exclusion NG 1] (Eterna round: R96, puzzle: Exclusion NG 1)”: the “apparent KD of MS2 coat protein” value by setting is: (input ligand: FMN 200 uM) 387 nM; under setting [1], 544 nM; (input ligand: none) 1140 nM.
Turning to “CCAUCACAUGAGGAUCACCCAUGUUAGGAUAUCAUUAGCCUCGGAGCUAUAGCGAGGUUGAGAAGGGACAUGUC [Eternabot (L1) Solution 87] (Eterna round: R97, puzzle: Exclusion 1)”, the “apparent KD of MS2 coat protein” value (input ligand: FMN 200 uM) is 19.9 nM and the “apparent KD of MS2 coat protein” value (input ligand: none) stood at 22.7 nM.
The matching figures for “CCAUGAUAAGGAUAUUGAAGGUUCGACAUGAGGAUCACCCAUGUUAUGUUGGAAAAGGGACAAGAAGGUAUUAAUU [salish99_ex5_r4_221] (Eterna round: R97, puzzle: Exclusion 5)”: 48.2 nM and 45.8 nM.
As for “CCAUGUUAGCAGGAUAUGCUAUUAAUCUUUUAUGCAGAAGGGCUUACAUGAGGAUCACCCAUGUAUUAAGUCAA [JR_E6_Sub077] (puzzle: Exclusion 6)”, the “apparent KD of MS2 coat protein” value under setting [2] was 13.2 nM.
With “CCAUUCAGAGGAUAUGCGCAUAAAUAAGACUUUUUUUUUUAACAUGAGGAUCACCCAUGUAGAAGGCUGUAACC [Ex2 #46] (Eterna round: R97, puzzle: Exclusion 2)”, the “apparent KD of MS2 coat protein” value turned out to be 24.6 nM (input ligand: FMN 200 uM) and 24.8 nM (input ligand: none).
For “CCCACAAGCUUUUUGCUCGACAUGAGGAUCACCCAUGUAAAAUGGGUAAAUUUAAAUUGAAACAAUUUAAAUUUGGG [-20.1, -44.2 kcal, A 35%] (Eterna round: R97, puzzle: Sensor, turn-off variant 1)” the same measures were 262 nM and 222 nM.
